Measurements from patent US20220332844A1 (ORIONIS BIOSCIENCES, published 2022).

B1: 3PE12 (VHH)
VHH: QVQLQESGGGLVQPGGSLRLSCAASGSTFSGNAMAWYRQAPGKRRELVAGISGGGVTNYPDSVKGRFTISRDNAKNTVYLQMSSLKPEDTAVYYCNLWPPRVSPGGGVYWGQGTQVTVSS
B2: 3PE93 (VHH)
VHH: QVQLQESGGGLVQPGESLRLSCAVSGSTSSMNAMAWYRQAPGKRRELVAGISGGGATNYPDSMKGRFTISRDNAKNTVYLQMSSLKPEDTAVYYCNLWPPRASPGGGVYWGQGTQVTVSS
B3: 3PE57 (VHH)
VHH: QVQLQESGGGLVQPGGSLRLSCAASGSTFSVNAVAWYRQAPGKRRELVAGISGGGVTNYPDSVKGRFTISRDNAKNTVYLQMSSLKPEDTAVYYCNLWPPRASPDGRVYWGQGTQVTVSS
B4: 3PE42 (VHH)
VHH: QVQLQESGGGLVQPGESLRLSCAVSGSTSSMNAMAWYRQAPGKRRELVAGISGGGATNYPDSVKGRFTISRDNAKNTVYLQMSSLKPEDTAVYYCNLWPPRASPGGGVYWGQGTQVTVSS

Biological target: T1, mouse FAP on transiently transfected HEK293T cells (pMET7 FLAG-mFAP) (mouse, UniProt P97321 1-761)
T1 construct: whole, on cells; not shown: FLAG tag of the plasmid pMET7 FLAG-mFAP
T1 sequence (looked up): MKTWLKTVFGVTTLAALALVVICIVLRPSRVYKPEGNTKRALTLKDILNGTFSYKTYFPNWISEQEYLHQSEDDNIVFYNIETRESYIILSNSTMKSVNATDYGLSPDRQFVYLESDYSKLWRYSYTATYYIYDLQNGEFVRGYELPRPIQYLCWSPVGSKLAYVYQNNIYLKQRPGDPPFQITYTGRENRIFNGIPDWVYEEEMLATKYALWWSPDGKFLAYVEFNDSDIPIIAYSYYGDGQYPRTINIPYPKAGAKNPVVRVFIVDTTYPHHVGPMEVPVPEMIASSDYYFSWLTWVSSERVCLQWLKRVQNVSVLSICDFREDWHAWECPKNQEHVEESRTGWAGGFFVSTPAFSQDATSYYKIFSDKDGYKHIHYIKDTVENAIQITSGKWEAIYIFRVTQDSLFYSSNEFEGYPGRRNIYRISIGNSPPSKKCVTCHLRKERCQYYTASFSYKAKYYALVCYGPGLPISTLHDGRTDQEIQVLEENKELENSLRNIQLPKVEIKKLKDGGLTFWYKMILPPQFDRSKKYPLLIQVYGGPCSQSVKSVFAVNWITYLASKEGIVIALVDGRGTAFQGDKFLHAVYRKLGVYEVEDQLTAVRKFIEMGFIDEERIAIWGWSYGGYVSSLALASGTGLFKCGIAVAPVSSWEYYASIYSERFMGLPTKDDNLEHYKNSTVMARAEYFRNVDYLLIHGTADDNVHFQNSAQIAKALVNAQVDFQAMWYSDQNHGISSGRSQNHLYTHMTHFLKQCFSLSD
Assay: FACS, serial dilution of purified VHH on transfected HEK293T cells

Row | Binder | binding result
1 | B1 | binds
2 | B2 | binds
3 | B3 | binds
4 | B4 | binds
